{
  "source": "the RNAGym collection of RNA variant scans (doi:10.1093/molbev/msab373)",
  "parents": {"B1": {"name": "Azoarcus group I ribozyme (parent)", "chain": "GUGCCUUGCGCCGGGAAACCACGCAAGGGAUGGUGUCAAAUUCGGCGAAACCUAAGCGCCCGCCCGGGCGUAUGGCAACGCCGAGCCAAGCUUCGGCGCCUGCGCCGAUGAAGGUGUAGAGACUAGACGGCACCCACCUAAGGCAAACGCUAUGGUGAAGGCAUAGUCCAGGGAGUGGCGAAAGUCACACAAACCGG"}},
  "data": [
    {"variants_of": "B1", "assay": "reverse-splicing fitness (ratio to wild type); higher = more active; in vitro selection; Mg2+ level not given", "procedure,_shortened": "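An in vitro group I ribozyme library with randomized positions was T7-transcribed and gel-purified. In triplicate, 10 pmol RNA in EPPS pH 7.5 was reacted with 50 pmoles of a 30-nt RNA substrate for 1 h at 37 °C across several added MgCl2 levels (1–48 mM), then stopped with EDTA. Products were reverse transcribed from a substrate-complementary primer, PCR-amplified and sequenced (HiSeq 4000). Fitness is a variant's read proportion after selection over that before, normalised to wild type.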", "values": [
      {"variant": "C82U A111C A120G A145C C150A C169G U176G", "reverse-splicing fitness": 0.00512},
      {"variant": "C82U A111C A120G A145C C150A C169G U176C", "reverse-splicing fitness": 0.0127},
      {"variant": "C82U A111C A120G A145C C150A C169G U176A", "reverse-splicing fitness": 0.0204},
      {"variant": "C82U A111C A120G A145G C150U C169G U176C", "reverse-splicing fitness": 0.0159},
      {"variant": "C82U A111C A120G A145G C150U C169G U176G", "reverse-splicing fitness": 0.00467},
      {"variant": "C82U A111C A120G A145G C150U C169G U176A", "reverse-splicing fitness": 0.0112},
      {"variant": "C82U A111C A120G A145U C150G C169G U176A", "reverse-splicing fitness": 0.0063},
      {"variant": "C82U A111C A120G A145U C150G C169G U176C", "reverse-splicing fitness": 0.00446},
      {"variant": "C82U A111C A120G A145U C150G C169G U176G", "reverse-splicing fitness": 0.00386},
      {"variant": "C82U A111C A120G A145U C150G U176C", "reverse-splicing fitness": 0.0141},
      {"variant": "C82U A111C A120G A145U C150G U176G", "reverse-splicing fitness": 0.00282},
      {"variant": "C82U A111C A120G A145U C150G U176A", "reverse-splicing fitness": 0.00768},
      {"variant": "C82U A111C A120G A145C C150G C169G U176C", "reverse-splicing fitness": 0.00632},
      {"variant": "C82U A111C A120G A145C C150G C169G U176G", "reverse-splicing fitness": 0.00437},
      {"variant": "C82U A111C A120G A145C C150G C169G U176A", "reverse-splicing fitness": 0.00836},
      {"variant": "C82U A111C A120G A145G C150A C169G U176A", "reverse-splicing fitness": 0.0146},
      {"variant": "C82U A111C A120G A145G C150A C169G U176G", "reverse-splicing fitness": 0.00493},
      {"variant": "C82U A111C A120G A145G C150A C169G U176C", "reverse-splicing fitness": 0.0241},
      {"variant": "C82U A111C A120G A145C C150U C169A U176A", "reverse-splicing fitness": 0.00813},
      {"variant": "C82U A111C A120G A145C C150U C169A U176C", "reverse-splicing fitness": 0.00554},
      {"variant": "C82U A111C A120G A145C C150U C169A U176G", "reverse-splicing fitness": 0.00505},
      {"variant": "C82U A111C A120G A145G C150U C169U U176A", "reverse-splicing fitness": 0.0152},
      {"variant": "C82U A111C A120G A145G C150U C169U U176C", "reverse-splicing fitness": 0.0131},
      {"variant": "C82U A111C A120G A145G C150U C169U U176G", "reverse-splicing fitness": 0.00449},
      {"variant": "C82U A111C A120G A145C C150U U176A", "reverse-splicing fitness": 0.00933},
      {"variant": "C82U A111C A120G A145C C150U U176G", "reverse-splicing fitness": 0.00354},
      {"variant": "C82U A111C A120G A145C C150U U176C", "reverse-splicing fitness": 0.00988},
      {"variant": "C82U A111C A120G A145C U176C", "reverse-splicing fitness": 0.0128},
      {"variant": "C82U A111C A120G A145C U176A", "reverse-splicing fitness": 0.0119},
      {"variant": "C82U A111C A120G A145C U176G", "reverse-splicing fitness": 0.00386},
      {"variant": "C82U A111C A120G A145G C169A U176C", "reverse-splicing fitness": 0.0272},
      {"variant": "C82U A111C A120G A145G C169A U176A", "reverse-splicing fitness": 0.0193},
      {"variant": "C82U A111C A120G A145G C169A U176G", "reverse-splicing fitness": 0.00456},
      {"variant": "C82U A111C A120G A145G C150A C169A", "reverse-splicing fitness": 0.00989},
      {"variant": "C82U A111C A120G A145G C150A C169G", "reverse-splicing fitness": 0.00809},
      {"variant": "C82U A111C A120G A145G C150A C169U", "reverse-splicing fitness": 0.00786},
      {"variant": "C82U A111C A120G A145C C150A C169U", "reverse-splicing fitness": 0.00688},
      {"variant": "C82U A111C A120G A145C C150A C169A", "reverse-splicing fitness": 0.00641},
      {"variant": "C82U A111C A120G A145C C150A C169G", "reverse-splicing fitness": 0.00682},
      {"variant": "C82U A111C A120G A145C C150U C169G U176A", "reverse-splicing fitness": 0.0181},
      {"variant": "C82U A111C A120G A145C C150U C169G U176C", "reverse-splicing fitness": 0.0105},
      {"variant": "C82U A111C A120G A145C C150U C169G U176G", "reverse-splicing fitness": 0.00492},
      {"variant": "C82U A111C A120G A145C C169A U176G", "reverse-splicing fitness": 0.00336},
      {"variant": "C82U A111C A120G A145C C169A U176A", "reverse-splicing fitness": 0.00788},
      {"variant": "C82U A111C A120G A145C C169A U176C", "reverse-splicing fitness": 0.00533},
      {"variant": "C82U A111C A120G A145U C150G C169A U176A", "reverse-splicing fitness": 0.0108},
      {"variant": "C82U A111C A120G A145U C150G C169A U176G", "reverse-splicing fitness": 0.00541},
      {"variant": "C82U A111C A120G A145U C150G C169A U176C", "reverse-splicing fitness": 0.00893},
      {"variant": "C82U A111C A120G A145G C169A", "reverse-splicing fitness": 0.0105},
      {"variant": "C82U A111C A120G A145G C169G", "reverse-splicing fitness": 0.00926},
      {"variant": "C82U A111C A120G A145G C169U", "reverse-splicing fitness": 0.00883},
      {"variant": "C82U A111C A120C U176A", "reverse-splicing fitness": 0.0154},
      {"variant": "C82U A111C A120C U176G", "reverse-splicing fitness": 0.00517},
      {"variant": "C82U A111C A120C U176C", "reverse-splicing fitness": 0.0215},
      {"variant": "C82U A111C A120G A145U C150A", "reverse-splicing fitness": 0.00775},
      {"variant": "C82U A111C A120G A145U C150G", "reverse-splicing fitness": 0.00658},
      {"variant": "C82U A111C A120G A145U C150U", "reverse-splicing fitness": 0.0111},
      {"variant": "C82U A111C A120G A145G C150G C169G", "reverse-splicing fitness": 0.0068},
      {"variant": "C82U A111C A120G A145G C150G C169U", "reverse-splicing fitness": 0.00832},
      {"variant": "C82U A111C A120G A145G C150G C169A", "reverse-splicing fitness": 0.0087},
      {"variant": "C82U A111C A120G A145G C150G C169G U176G", "reverse-splicing fitness": 0.00526},
      {"variant": "C82U A111C A120G A145G C150G C169G U176C", "reverse-splicing fitness": 0.0114},
      {"variant": "C82U A111C A120G A145G C150G C169G U176A", "reverse-splicing fitness": 0.00921},
      {"variant": "C82U A111C A120G A145U C150A C169G U176C", "reverse-splicing fitness": 0.0126},
      {"variant": "C82U A111C A120G A145U C150A C169G U176G", "reverse-splicing fitness": 0.00431},
      {"variant": "C82U A111C A120G A145U C150A C169G U176A", "reverse-splicing fitness": 0.0105},
      {"variant": "C82U A111C A120G A145C C150G C169U U176G", "reverse-splicing fitness": 0.0039},
      {"variant": "C82U A111C A120G A145C C150G C169U U176A", "reverse-splicing fitness": 0.00949},
      {"variant": "C82U A111C A120G A145C C150G C169U U176C", "reverse-splicing fitness": 0.00897},
      {"variant": "C82U A111C A120G A145C C169U", "reverse-splicing fitness": 0.007},
      {"variant": "C82U A111C A120G A145C C169G", "reverse-splicing fitness": 0.00924},
      {"variant": "C82U A111C A120G A145C C169A", "reverse-splicing fitness": 0.0073},
      {"variant": "C82U A111C A120G A145C C150A", "reverse-splicing fitness": 0.00617},
      {"variant": "C82U A111C A120G A145C C150G", "reverse-splicing fitness": 0.007},
      {"variant": "C82U A111C A120G A145C C150U", "reverse-splicing fitness": 0.00818},
      {"variant": "C82U A111C A120G A145C C150G C169A U176C", "reverse-splicing fitness": 0.00509},
      {"variant": "C82U A111C A120G A145C C150G C169A U176A", "reverse-splicing fitness": 0.00754},
      {"variant": "C82U A111C A120G A145C C150G C169A U176G", "reverse-splicing fitness": 0.00441},
      {"variant": "C82U A111C A120G A145G C169G U176C", "reverse-splicing fitness": 0.028},
      {"variant": "C82U A111C A120G A145G C169G U176A", "reverse-splicing fitness": 0.019},
      {"variant": "C82U A111C A120G A145G C169G U176G", "reverse-splicing fitness": 0.00408},
      {"variant": "C82U A111C A120G A145C C169G U176A", "reverse-splicing fitness": 0.0216},
      {"variant": "C82U A111C A120G A145C C169G U176C", "reverse-splicing fitness": 0.0122},
      {"variant": "C82U A111C A120G A145C C169G U176G", "reverse-splicing fitness": 0.00397}
    ]}
  ]
}
